What was measured:
[1] = substrate: N[C@@H](CCC(=O)O)C(=O)O; experiment: purified protein; type: biochemical, Escherichia coli; conditions: 0.1 M Pyridine/HCl, pH 4.6, 0.1 mM DTT, 40 µM PLP, discontinuous assay
[2] = substrate: N[C@@H](CC[PH](=O)O)C(=O)O; experiment: purified protein; type: biochemical, Escherichia coli; conditions: 0.1 M Pyridine/HCl, pH 4.6, 0.1 mM DTT, 40 µM PLP, discontinuous assay

B1: EcGadB (Escherichia coli K-12) (protein)
chain: MDKKQVTDLRSELLDSRFGAKSISTIAESKRFPLHEMRDDVAFQIINDELYLDGNARQNLATFCQTWDDENVHKLMDLSINKNWIDKEEYPQSAAIDLRCVNMVADLWHAPAPKNGQAVGTNTIGSSEACMLGGMAMKWRWRKRMEAAGKPTDKPNLVCGPVQICWHKFARYWDVELREIPMRPGQLFMDPKRMIEACDENTIGVVPTFGVTYTGNYEFPQPLHDALDKFQADTGIDIDMHIDAASGGFLAPFVAPDIVWDFRLPRVKSISASGHKFGLAPLGCGWVIWRDEEALPQELVFNVDYLGGQIGTFAINFSRPAGQVIAQYYEFLRLGREGYTKVQNASYQVAAYLADEIAKLGPYEFICTGRPDEGIPAVCFKLKDGEDPGYTLYDLSERLRLRGWQVPAFTLGGEATDIVVMRIMCRRGFEMDFAELLLEDYKASLKYLSDHPKLQGIAQQNSFKHT
notes: expressed and purified EcGadB (DEAE chromatography); no tag stated; PLP-dependent homohexamer; EC 4.1.1.15
[1]
  Km: 0.84 ± 0.09 mM
  kcat: 78.2 ± 2.06 s⁻¹
  kcat/Km: 92800 ± 10300 M⁻¹ s⁻¹
[2]
  Km: 39.82 ± 5.66 mM
  kcat: 13.9 ± 0.58 s⁻¹
  kcat/Km: 350 ± 50 M⁻¹ s⁻¹

From publication PMC9814759, “Enzymatic kinetic resolution of desmethylphosphinothricin indicates that phosphinic group is a bioisostere of carboxyl group” (Communications Chemistry, 2020)
